Patent US12582683B2, “Prostate neoantigens and their uses” (Jansen Biotech, Inc., priority 2019, dated 2026)

B1: VFFKRAAEGFFRMNKLKESSDTNPKPYCMAAPMGLTENNRNRKKSYRETNLKAVSWPLNHT [P77] (peptide, listed as Homo sapiens)
chain: VFFKRAAEGFFRMNKLKESSDTNPKPYCMAAPMGLTENNRNRKKSYRETNLKAVSWPLNHT
notes: AR-V3

How the values were obtained:
[1] = system: CD8+ T cells in PBMCs from patients with metastatic castrate-resistant prostate cancer; experiment: Patient PBMC restimulation assay (in vitro immunogenicity of neoantigens); assay type: cell-based, human; parameters: Maximum frequency of TNFα+IFNγ+CD8+ T cells: unit not given here; settings: for Maximum frequency of TNFα+IFNγ+CD8+ T cells: greatest frequency among all tested PBMC donors, negative control 0.011-0.8; for Maximum fold change over: fold change over negative control, highest across the PBMC donors evaluated, 9 mer peptide
Experimental: In Vitro Immunogenicity Assessment of Neoantigens (“Patient PBMC Restimulation Assay”)
PBMCs from human patients with metastatic castrate-resistant prostate cancer were thawed using media (RPMI 1640 supplemented with Glutamax, 10% HI FBS, and 1× Sodium Pyruvate). Cells were counted and plated in a 96 well round bottom microplate at a concentration of 250,000 viable cells per well. Lyophilized peptides were solubilized in 100% DMSO and diluted in media to 10 μg/mL. Neoantigen peptides were added in equal volume to PBMCs for a final concentration of 5 μg/mL. CEF Peptide Pool “Plus” (Cellular Technologies, Ltd.) was utilized as a positive control and DMSO at the same final concentration as the experimental peptides was utilized as a negative control. Human IL-15 (Peprotech) was added to all wells at final concentration of 10 ng/mL.
Plates were incubated at 37° C. (5% CO2) for a total of 13 days. Media was refreshed every 2 days with IL-15 (10 ng/mL final concentration) and IL-2 (R&D systems, 10 IU/mL final concentration). On day 12, PBMCs were re-stimulated with identical experimental peptides or controls, at same concentration as peptide stimulation on Day 1. After 1-hour incubation, protein Inhibitor Cocktail (eBioscience) was added to every well and plate was incubated overnight.
On day 13, cells were stained for intracellular flow cytometry analysis. The cells were washed with PBS and stained with Live/Dead Fixable Aqua Dead Cell stain (Thermo-Fisher). Following the live/dead stain, cells were blocked using Biotin-Free Fe Receptor Blocker (Accurate Chemical & Scientific Corp). Extracellular cellular flow panel (1 μL/antibody per well in 50 μL) consisted of CD3 PerCP-Cy5.5 (Biolegend), CD4 BV421 (Biolegend), and CD8 APC-Cy7 (Biolegend). After extracellular staining, cells were fixed using Foxp3/Transcription Factor Staining Buffer Set (eBioscience) and stained for intracellular proteins (1:50 dilution) using TNFα FITC (R&D Systems) and IFNγ BV785 (Biolegend). Cells were washed and resuspended in stain buffer and analyzed using a BD Celesta flow cytometer.
Flow cytometry cell staining analysis was completed using FlowJo v10. Cells were gated on live, singlet, CD3+ cells. The CD8+ T cells were analyzed for TNFα/IFNγ expression and the frequency of double positive TNFα/IFNγ CD8+ T cells was recorded. Responses were assessed to be positive when the frequency of double positive TNFα/IFNγ CD8+ T cells due to stimulation with an experimental peptide was increased greater than or equal to 2-fold over the DMSO only negative control for that patient. Peptides were analyzed in 1 to 7 patient samples.
The 9 mer fragments shown in Table 13 were assessed for their ability to activate T cells using the Patient PBMC restimulation assay described in Example 1 using TNFα and IFNγ production by CD8^+ T cells as a readout. Self-antigens shown in Table 15 were also used in the assays. […] PBMCs from ten patients were evaluated.

HLA-A*01:01 = HLA-A*01:01 (Homo sapiens, UniProt P04439, A114D/A174V/A182V/D101N/D185E/E176A/E190D/L180R/Q94H/R68K/S129P/T187R/V100A/V91M/W191G); experiment: In vitro binding of neoantigens to class I MHC (UV peptide exchange, HLA class I ELISA); settings: 100% = same binding affinity as positive control peptide
Experimental: (§1) In Vitro Binding of Neoantigens to Class I MHC
(§2) The 9 mer peptides identified by bioinformatics analysis were analyzed for their binding propensities to 6 common HLA class I alleles (HLA-A*01:01, A*02:01, A*03:01, A*24:02, B*07:02, B*08:01). The principle of the method is briefly described below and consists of two parts, one involving exchange of peptide with a positive control induced by Ultraviolet (UV) radiation, and the second is an enzyme immunoassay to detect stable HLA-peptide and empty HLA complexes.
(§3) HLA-bound peptides are critical for the stability of the HLA complex.
(§4) The exchange efficiency between the peptide of interest and Pos was analyzed using an HLA class I ELISA. The combined technologies allowed the identification of ligands for an HLA molecule of interest which are potentially immunogenic.
(§5) The UV control represented UV-irradiation of conditional HLA class I complex in the absence of a rescue peptide. […] To this end streptavidin was bound onto polystyrene microtiter wells. After washing and blocking, HLA complex present in exchange reaction mixtures or ELISA controls was captured by the streptavidin on the microtiter plate via its biotinylated heavy chain. Non-bound material was removed by washing. Subsequently, horseradish peroxidase (HRP)-conjugated antibody to human B2M was added. […] In the latter case B2M was removed during the washing step. After removal of non-bound HRP conjugate by washing, a substrate solution was added to the wells. A coloured product formed in proportion to the amount of intact HLA complex present in the samples. After the reaction was terminated by the addition of a stop solution, absorbance was measured in a microtiter plate reader. […] Suboptimal HLA binding of peptides with a moderate to low affinity for HLA class I molecules can also be detected by this ELISA technique (Rodenko, B et al. (2006) Nature Protocols 1: 1120-32).
(§6) Binding of select neoepitopes to HLA-A*01:01, HLA-A* 02:01, HLA-A* 03:01, HLA-A*24:02, HLA-1B*07:02 and HLA-1B*08:01 was evaluated using the assay described in Example 1. […] As a criterion for further evaluation, peptides with an exchange rate of at least 10% with the corresponding Pos peptide for at least one of the 6 HLA alleles that we considered for further evaluation. […] Higher percentages correspond to stronger binding to the HLA allele.

HLA-A*02:01 = HLA-A*02:01 (Homo sapiens, UniProt P04439, D140Y/D185E/D98H/E176V/E277Q/G131W/G231S/I119V/I121R/I166T/I218V/L300P/L318F/N151K/N90K/P208A/P217A/Q86G/Q94H/R138H/R169H/T345S); experiment: as above; settings: 100% = same binding affinity as positive control peptide
Experimental: as §1, §2, §3, §4, §5, §6

HLA-A*03:01 = HLA-A*03:01 (Homo sapiens, UniProt P04439); experiment: as above; settings: 100% = same binding affinity as positive control peptide
Experimental: as §1, §2, §3, §4, §5, §6

HLA-A*24:02 = HLA-A*24:02 (Homo sapiens, UniProt P04439, D101N/D140Y/D185E/E176V/E190D/F33S/G103R/G107R/I119L/I121M/I306V/K335N/L105A/L180Q/L300P/N151K/N90K/Q86E/Q94H/R106L/R138H/R89G/T104I/T345S/V100E/W191G/Y123F); experiment: as above; settings: 100% = same binding affinity as positive control peptide
Experimental: as §1, §2, §3, §4, §5, §6

HLA-B*07:02 = HLA-B*07:02 (Homo sapiens, UniProt P01889); experiment: as above; settings: 100% = same binding affinity as positive control peptide
Experimental: as §1, §2, §3, §4, §5, §6

Molecule	Maximum frequency of TNFα+IFNγ+CD8+ T cells [1]	Exchange rate with Pos peptide, HLA-A*01:01 (HLA-A*01:01) [%]	Exchange rate with Pos peptide, HLA-A*02:01 (HLA-A*02:01) [%]	Exchange rate with Pos peptide, HLA-A*03:01 (HLA-A*03:01) [%]	Exchange rate with Pos peptide, HLA-A*24:02 (HLA-A*24:02) [%]	Maximum fold change over [1]	Exchange rate with Pos peptide, HLA-B*07:02 (HLA-B*07:02) [%]	Immunogenic ([1]; patient PBMC restimulation, CD8+ T cells)
MFENGCYLGRQKRFKCE (listed as Homo sapiens) [Neoantigen P61, FOXAl.p.R261G]	0.084	1.7	5.8	2.1	90.3			
MMAEHSVHVPKILSGK (MMAEIISVHVPKILSGK; listed as Homo sapiens) [Neoantigen P58, AR (Q903H)]	5.370	2.5	11.8	32.5	0.2			
NSKMALNSLNSIDDAQLTRIAPPRSHCCFWEVNAP (listed as Homo sapiens) [Neoantigen P35, TMPRSS2-ERG]	0.064					2.67		
PKSEVRAKCKFSILNAK (listed as Homo sapiens) [Neoantigen P56, SPOP (F102C)]	1.620	2.6	8.4	6.8	0.5	11.57	82.5	
QMAVIQYSCMGLMVFAM (listed as Homo sapiens) [Neoantigen P50, AR (W742C)]	0.190					5.14		
SLYHREKQLIAMDSAI (listed as Homo sapiens) [Neoantigen P22, 5LC45A3-ELK4]	0.120	4.4	46.9	4.8	0	5.00	8.3	
VQPIARELYQFTFDLLI (listed as Homo sapiens) [Neoantigen P48, AR.p.H875Y]	0.220	4.3	99.3	4.4	0.1	2.33	12.8	
B1	0.160					3.24		Yes
